For series [1], the target named is T1, HxlR-WT (Bacillus subtilis 168, UniProt P42406 1-120). Nature of the series: EMSA; FA-treated (0.6 mM FA in text/legend; 1 mM in Methods); DNA binding enhanced; EMSA: protein preincubated +/- FA (1 mM in Methods, 0.6 mM in legends) in 20 mM HEPES pH 7.5, 300 mM NaCl, 1-2 h, 37 C; then 50 nM dsDNA in 20 mM HEPES pH 7.0. On the technique in general: A gel shift assay detects complexes by their altered migration in electrophoresis.

Another series deals with HxlR-K13A (Bacillus subtilis 168, UniProt P42406 1-120, K13A). The experiment in a line: EMSA; no FA; higher basal binding than WT; EMSA: protein preincubated +/- FA (1 mM in Methods, 0.6 mM in legends) in 20 mM HEPES pH 7.5, 300 mM NaCl, 1-2 h, 37 C; then 50 nM dsDNA in 20 mM HEPES pH 7.0.
The target in series [2] is T1, HxlR-WT. The experiment in a line: X-ray crystallography (2.9 A); 1 mM FA-treated protein; Cys11-CH2-Lys13 methylene bridge; 50 mM MgCl2 in crystallization; EMSA: protein preincubated +/- FA (1 mM in Methods, 0.6 mM in legends) in 20 mM HEPES pH 7.5, 300 mM NaCl, 1-2 h, 37 C; then 50 nM dsDNA in 20 mM HEPES pH 7.0.

Here are results for two molecules from publication PMC7835342.

B1: BRH (hxlAB promoter EMSA probe) (dsDNA)
DNA 1: CCTCACAGTATCCTCCAAGTAACTTGTTGACTTCAAAGTGCCTACTTCTC
DNA 2: GAGAAGTAGGCACTTTGAAGTCAACAAGTTACTTGGAGGATACTGTGAGG
Turning to B1, the binding result with HxlR-WT [1] and in the series with HxlR-K13A was “binds” each time.

B2: 20 bp palindromic crystallization DNA (dsDNA)
DNA 1: CAGTATCCTCGAGGATACTG
DNA 2: CAGTATCCTCGAGGATACTG
As for B2, the binding result with HxlR-WT [2] is “binds”.
